Measurements taken from the supplement of paper PMC10724198.
± gives the standard deviation of the averaged measurements.

Tested on: Saccharomyces cerevisiae
Assay: protein stability index of tFT-peptide fusion (C-terminal peptide) (PSI (0-1 scale)); higher = more stable (slower turnover)
Details: genetic background: wild type; temperature: 30 C
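Further: PSI is a weighted mean of sequencing reads over stability bins, variants kept only with over 10 reads, mCherry proximal and sfGFP distal, peptide attached via GGGS linker.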

**Q.** For TRNTNYNKKIKV, which protein stability index is on record?
**A.** 0.6801 ± 0.0022

**Q.** With TRPCFSGFNSPF as the sequence, how does the protein stability index read?
**A.** 0.6545 ± 0.0019

**Q.** How did the protein stability index turn out when TRPSPHRPSAST was run?
**A.** 0.678 ± 0.054

**Q.** How did the protein stability index turn out when TRSRAQTEAHRR was run?
**A.** 0.669 ± 0.032

**Q.** With TRTTTQKNNATT as the sequence, how does the protein stability index read?
**A.** 0.717 ± 0.037

**Q.** How did the protein stability index turn out when TSHSSSGQAGKI was run?
**A.** 0.73 ± 0.033

**Q.** TSIDVLKCVYIQ was tested. Which protein stability index did it give?
**A.** 0.5549 ± 0.0054

**Q.** For TSKGLGSRSAHP, which protein stability index is on record?
**A.** 0.665 ± 0.044

**Q.** With TSLALAFTFAIP as the sequence, how does the protein stability index read?
**A.** 0.703 ± 0.051

**Q.** Which protein stability index does the source give for TSPPHLPASSHS here?
**A.** 0.689 ± 0.014

**Q.** Which protein stability index does the source give for TSQHLQNHYKKI here?
**A.** 0.701 ± 0.0035

**Q.** With TSRCQIGIALGG as the sequence, how does the protein stability index read?
**A.** 0.695 ± 0.12

**Q.** How did the protein stability index turn out when TSRGGFCLGGVF was run?
**A.** 0.729 ± 0.018

**Q.** With TSRLPPSPPPPP as the sequence, how does the protein stability index read?
**A.** 0.696 ± 0.14

**Q.** For TSRSPLCTETIP, which protein stability index is on record?
**A.** 0.736 ± 0.0074

**Q.** For TSTGARTMFNPV, which protein stability index is on record?
**A.** 0.646 ± 0.061

**Q.** Which protein stability index does the source give for TSVVLPGPAVSR here?
**A.** 0.732 ± 0.049

**Q.** TSWTTVYSSLLT was tested. Which protein stability index did it give?
**A.** 0.672 ± 0.088

**Q.** Which protein stability index does the source give for TTACLLERFTRV here?
**A.** 0.664 ± 0.028

**Q.** How did the protein stability index turn out when TTDKNEAHVYSR was run?
**A.** 0.6931 ± 0.00098

**Q.** How did the protein stability index turn out when TTGGRGARVGGR was run?
**A.** 0.755 ± 0.08

**Q.** Which protein stability index does the source give for TTILCVARHIPH here?
**A.** 0.759 ± 0.089

**Q.** TTLFLPAGYACR was tested. Which protein stability index did it give?
**A.** 0.707 ± 0.037

**Q.** TTPKLQPAPAVP was tested. Which protein stability index did it give?
**A.** 0.691 ± 0.059

**Q.** How did the protein stability index turn out when TTRKMGTRAPSL was run?
**A.** 0.647 ± 0.095

**Q.** TTRPTRGRPSSG was tested. Which protein stability index did it give?
**A.** 0.682 ± 0.058

**Q.** TTSDSVVFWTLH was tested. Which protein stability index did it give?
**A.** 0.719 ± 0.0074

**Q.** How did the protein stability index turn out when TTSGCARLSHMV was run?
**A.** 0.709 ± 0.086

**Q.** TTSPRNMIIYYR was tested. Which protein stability index did it give?
**A.** 0.627 ± 0.037

**Q.** With TTYFLASSEWAG as the sequence, how does the protein stability index read?
**A.** 0.7739 ± 0.003

**Q.** For TVGSPTPRSSAP, which protein stability index is on record?
**A.** 0.707 ± 0.0098

**Q.** Which protein stability index does the source give for TVLRPVLCCFFV here?
**A.** 0.698 ± 0.015

**Q.** TVLSSQKPNNDR was tested. Which protein stability index did it give?
**A.** 0.652 ± 0.023

**Q.** With TVPESGSIGERK as the sequence, how does the protein stability index read?
**A.** 0.672 ± 0.03

**Q.** For TVPGTARGQRPP, which protein stability index is on record?
**A.** 0.629 ± 0.03

**Q.** With TVRFTHQRNTVK as the sequence, how does the protein stability index read?
**A.** 0.689 ± 0.037

**Q.** TVRIGKYTGNGV was tested. Which protein stability index did it give?
**A.** 0.738 ± 0.017

**Q.** How did the protein stability index turn out when TVSAPLFFPLNW was run?
**A.** 0.663 ± 0.034

**Q.** Which protein stability index does the source give for TVTSTLKKHKRG here?
**A.** 0.669 ± 0.034

**Q.** Which protein stability index does the source give for TVYTPGVFVKTV here?
**A.** 0.562 ± 0.044

**Q.** For TWIGRLGAGLPF, which protein stability index is on record?
**A.** 0.779 ± 0.074

**Q.** TWSLYFSCRLFW was tested. Which protein stability index did it give?
**A.** 0.54 ± 0.055

**Q.** For TWVVPSASWLVF, which protein stability index is on record?
**A.** 0.598 ± 0.009

**Q.** With TYGPSLPVHAVT as the sequence, how does the protein stability index read?
**A.** 0.686 ± 0.012

**Q.** For TYPMGVVLVESG, which protein stability index is on record?
**A.** 0.498 ± 0.011

**Q.** For TYQRTHKTATQF, which protein stability index is on record?
**A.** 0.681 ± 0.073

**Q.** With TYRLPLLAPAPR as the sequence, how does the protein stability index read?
**A.** 0.688 ± 0.0097

**Q.** For TYSCLKIVIPRT, which protein stability index is on record?
**A.** 0.664 ± 0.018

**Q.** Which protein stability index does the source give for VAAASPLFSRID here?
**A.** 0.712 ± 0.014

**Q.** Which protein stability index does the source give for VADTLVCRGPMA here?
**A.** 0.718 ± 0.023

**Q.** Which protein stability index does the source give for VALEWGAVRVEG here?
**A.** 0.569 ± 0.088

**Q.** For VALPVGQKLRTR, which protein stability index is on record?
**A.** 0.633 ± 0.029

**Q.** Which protein stability index does the source give for VAPLTPPPSLPF here?
**A.** 0.671 ± 0.014

**Q.** Which protein stability index does the source give for VAQKARSVRFSI here?
**A.** 0.722 ± 0.1

**Q.** With VARPSGQRVRHA as the sequence, how does the protein stability index read?
**A.** 0.656 ± 0.085

**Q.** With VARVVGGVGGGW as the sequence, how does the protein stability index read?
**A.** 0.6553 ± 0.006

**Q.** With VASGLVLFSGGV as the sequence, how does the protein stability index read?
**A.** 0.655 ± 0.0076

**Q.** With VASGTLGWWVSA as the sequence, how does the protein stability index read?
**A.** 0.712 ± 0.018

**Q.** For VAVGAGAGAMGL, which protein stability index is on record?
**A.** 0.656 ± 0.0094

**Q.** For VAYAGIRHDIPQ, which protein stability index is on record?
**A.** 0.68 ± 0.081

**Q.** For VCCMFTAFGVCG, which protein stability index is on record?
**A.** 0.604 ± 0.022

**Q.** For VCGGRQVGWGGW, which protein stability index is on record?
**A.** 0.684 ± 0.045

**Q.** With VCGLTLSVCTFG as the sequence, how does the protein stability index read?
**A.** 0.567 ± 0.0068

**Q.** VCKGGRIEYGLQ was tested. Which protein stability index did it give?
**A.** 0.666 ± 0.037

**Q.** With VCLCFWSVGSWG as the sequence, how does the protein stability index read?
**A.** 0.543 ± 0.011

**Q.** How did the protein stability index turn out when VCLCGGLGWVLF was run?
**A.** 0.634 ± 0.029

**Q.** VCVACLRYPTFS was tested. Which protein stability index did it give?
**A.** 0.6767 ± 0.0031

**Q.** For VCWFMWSSVYGE, which protein stability index is on record?
**A.** 0.527 ± 0.051

**Q.** With VDCEECSFQFQM as the sequence, how does the protein stability index read?
**A.** 0.586 ± 0.15

**Q.** How did the protein stability index turn out when VDCGPLSIEGGR was run?
**A.** 0.649 ± 0.018

**Q.** Which protein stability index does the source give for VDLLGWVSESRC here?
**A.** 0.743 ± 0.089

**Q.** How did the protein stability index turn out when VDREGFTVLGRV was run?
**A.** 0.657 ± 0.021

**Q.** For VDSLETDVLKYL, which protein stability index is on record?
**A.** 0.665 ± 0.011

**Q.** With VDSLFGSRVLRL as the sequence, how does the protein stability index read?
**A.** 0.727 ± 0.097

**Q.** For VEDGQGEYRRWV, which protein stability index is on record?
**A.** 0.606 ± 0.049

**Q.** How did the protein stability index turn out when VEGINSQERLGV was run?
**A.** 0.724 ± 0.07

**Q.** Which protein stability index does the source give for VEHHSKQIEKGR here?
**A.** 0.681 ± 0.053

**Q.** For VELCLREKQIQL, which protein stability index is on record?
**A.** 0.6749 ± 0.0039

**Q.** How did the protein stability index turn out when VELFSYGHHCRV was run?
**A.** 0.658 ± 0.011

**Q.** VELSVVHMGHTA was tested. Which protein stability index did it give?
**A.** 0.722 ± 0.0073

**Q.** For VESRVVGGCGDW, which protein stability index is on record?
**A.** 0.625 ± 0.03

**Q.** VEVGAWMVGCSE was tested. Which protein stability index did it give?
**A.** 0.6113 ± 0.0012

**Q.** How did the protein stability index turn out when VEWCARGRVRRA was run?
**A.** 0.757 ± 0.045

**Q.** Which protein stability index does the source give for VEWLQLERDPLV here?
**A.** 0.741 ± 0.033

**Q.** How did the protein stability index turn out when VEYGRLPRGEEG was run?
**A.** 0.645 ± 0.13

**Q.** VFADHPSMHILS was tested. Which protein stability index did it give?
**A.** 0.72 ± 0.021

**Q.** VFAGGCRLYCFR was tested. Which protein stability index did it give?
**A.** 0.624 ± 0.063

**Q.** For VFALSSVAIRRS, which protein stability index is on record?
**A.** 0.64 ± 0.032

**Q.** How did the protein stability index turn out when VFAWFSGGARLT was run?
**A.** 0.717 ± 0.0076

**Q.** VFCFGVRSVFLR was tested. Which protein stability index did it give?
**A.** 0.54 ± 0.053

**Q.** For VFCLGTRSWGLF, which protein stability index is on record?
**A.** 0.6997 ± 0.0042

**Q.** How did the protein stability index turn out when VFFCALCRLWLG was run?
**A.** 0.5 ± 0.029

**Q.** For VFGGSLICVFRV, which protein stability index is on record?
**A.** 0.567 ± 0.025

**Q.** For VFLASFLVCPIS, which protein stability index is on record?
**A.** 0.662 ± 0.057

**Q.** For VFLSLLYWSPIG, which protein stability index is on record?
**A.** 0.643 ± 0.038

**Q.** With VFLTLDVFPSSP as the sequence, how does the protein stability index read?
**A.** 0.647 ± 0.17

**Q.** For VFPPPLPVRRCP, which protein stability index is on record?
**A.** 0.6551 ± 0.0031

**Q.** With VFPRVFGFGVCI as the sequence, how does the protein stability index read?
**A.** 0.716 ± 0.054

**Q.** With VFQRFLLFTISP as the sequence, how does the protein stability index read?
**A.** 0.61 ± 0.014

**Q.** For VFRSGGNQDIKV, which protein stability index is on record?
**A.** 0.648 ± 0.015

**Q.** Which protein stability index does the source give for VFSAVIFFDCVQ here?
**A.** 0.629 ± 0.014
